The values that follow come from the supplement of paper PMC11246515.

The data set in a line: total protein half-life in vivo (active degradation + dilution); higher = more stable protein.
Setting [1] is: E. coli NCM3722 delta-clpP delta-lon delta-hslV, growth: N-lim chemostat, doubling time 6 h.
Where [2] appears, read: E. coli NCM3722 delta-clpP, growth: N-lim chemostat, doubling time 6 h.
[3] abbreviates: E. coli NCM3722 delta-hslV, growth: N-lim chemostat, doubling time 6 h.
Where [4] appears, read: E. coli NCM3722 delta-lon, growth: N-lim chemostat, doubling time 6 h.
Where [5] appears, read: E. coli NCM3722 delta-smpB, growth: N-lim chemostat, doubling time 6 h.
[6] abbreviates: wild type E. coli NCM3722, growth: C-lim chemostat, doubling time 3 h.
Where [7] appears, read: wild type E. coli NCM3722, growth: C-lim chemostat, doubling time 6 h.
[8] abbreviates: wild type E. coli NCM3722, growth: C-lim chemostat, doubling time 12 h.
Where [9] appears, read: wild type E. coli NCM3722, growth: N-lim chemostat, doubling time 6 h.
The mark [10] stands for this setting: wild type E. coli NCM3722, growth: N-lim chemostat, doubling time 12 h.
The mark [11] stands for this setting: wild type E. coli NCM3722, growth: P-lim chemostat, doubling time 6 h.
The mark [12] stands for this setting: wild type E. coli NCM3722, growth: P-lim chemostat, doubling time 12 h.

± gives the standard deviation of the averaged measurements.

As to “MSKIFEDNSLTIGHTPLVRLNRIGNGRILAKVESRNPSFSVKCRIGANMIWDAEKRGVLKPGVELVEPTSGNTGIALAYVAAARGYKLTLTMPETMSIERRKLLKALGANLVLTEGAKGMKGAIQKAEEIVASNPEKYLLLQQFSNPANPEIHEKTTGPEIWEDTDGQVDVFIAGVGTGGTLTGVSRYIKGTKGKTDLISVAVEPTDSPVIAQALAGEEIKPGPHKIQGIGAGFIPANLDLKLVDKVIGITNEEAISTARRLMEEEGILAGISSGAAVAAALKLQEDESFTNKNIVVILPSSGERYLSTALFADLFTEKELQQ [P0ABK5]”, the “total protein half-life in vivo” value runs as follows: under setting [1], 5.312 ± 0.029 h; under setting [2], 5.14 ± 0.39 h; under setting [3], 4.87 ± 0.096 h; under setting [4], 5.03 ± 0.31 h; under setting [5], 4.53 ± 0.22 h; under setting [6], 3.45 ± 0.18 h. The “total protein half-life in vivo” value is, setting by setting: under setting [7], 6.1 ± 0.7 h; under setting [8], 11.8 ± 2.1 h; under setting [9], 4.68 ± 0.36 h; under setting [10], 8.22 ± 0.3 h; under setting [11], 5.72 ± 0.34 h; under setting [12], 13.1 ± 1.2 h.

In the case of “MTLTLNRQLLTSRQILVAFSGGLDSTVLLHQLVQWRTENPGVALRAIHVHHGLSANADAWVTHCENVCQQWQVPLVVERVQLAQEGLGIEAQARQARYQAFARTLLPGEVLVTAQHLDDQCETFLLALKRGSGPAGLSAMAEVSEFAGTRLIRPLLARTRGELVQWARQYDLRWIEDESNQDDSYDRNFLRLRVVPLLQQRWPHFAEATARSAALCAEQESLLDELLADDLAHCQSPQGTLQIVPMLAMSDARRAAIIRRWLAGQNAPMPSRDALVRIWQEVALAREDASPCLRLGAFEIRRYQSQLWWIKSVTGQSENIVPWQTWLQPLELPAGLGSVQLNAGGDIRPPRADEAVSVRFKAPGLLHIVGRNGGRKLKKIWQELGVPPWLRDTTPLLFYGETLIAAAGVFVTQEGVAEGENGVSFVWQKTLS”, the “total protein half-life in vivo” value came to 5.68 ± 0.23 h under setting [1]; 5.01 ± 0.08 h under setting [2]; 4.74 ± 0.42 h under setting [3]; 4.89 ± 0.25 h under setting [4]; 4.44 ± 0.24 h under setting [5]; 5.78 ± 0.29 h under setting [7]. The “total protein half-life in vivo” value turned out to be 11 ± 0.83 h under setting [8]; 5.27 ± 0.28 h under setting [9]; 8.42 ± 0.81 h under setting [10]; 6.31 ± 0.15 h under setting [11]; 11.6 ± 1 h under setting [12].

As to “MKTERILGALYGQALGDAMGMPSELWPRSRVKAHFGWIDRFLPGPKENNAACYFNRAEFTDDTSMALCLADALLEREGKIDPDLIGRNILDWALRFDAFNKNVLGPTSKIALNAIRDGKPVAELENNGVTNGAAMRVSPLGCLLPARDVDSFIDDVALASSPTHKSDLAVAGAVVIAWAISRAIDGESWSAIVDSLPSIARHAQQKRITTFSASLAARLEIALKIVRNADGTESASEQLYQVVGAGTSTIESVPCAIALVELAQTDPNRCAVLCANLGGDTDTIGAMATAICGALHGVNAIDPALKAELDAVNQLDFNRYATALAKYRQQREAV”, the “total protein half-life in vivo” value is, setting by setting: under setting [1], 4.09 ± 0.27 h; under setting [2], 3.33 ± 0.15 h; under setting [3], 3.21 ± 0.037 h; under setting [4], 3.64 ± 0.55 h; under setting [5], 3.4389 ± 0.00072 h; under setting [6], 2.89 ± 0.35 h. The “total protein half-life in vivo” value is 5.04 ± 0.58 h under setting [7]; 9.45 ± 0.66 h under setting [8]; 3.36 ± 0.19 h under setting [9]; 4.91 ± 0.38 h under setting [10]; 5.45 ± 0.4 h under setting [11]; 10.4 ± 0.37 h under setting [12].

Consider “MFTGIVQGTAKLVSIDEKPNFRTHVVELPDHMLDGLETGASVAHNGCCLTVTEINGNHVSFDLMKETLRITNLGDLKVGDWVNVERAAKFSDEIGGHLMSGHIMTTAEVAKILTSENNRQIWFKVQDSQLMKYILYKGFIGIDGISLTVGEVTPTRFCVHLIPETLERTTLGKKKLGARVNIEIDPQTQAVVDTVERVLAARENAMNQPGTEA [P0AFU8]”, for which the “total protein half-life in vivo” value is 4.8 ± 0.2 h under setting [1]; 4.397 ± 0.01 h under setting [2]; 4.123 ± 0.0054 h under setting [3]; 4.774 ± 0.047 h under setting [4]; 4.561 ± 0.029 h under setting [5]; 3.06 ± 0.28 h under setting [6]. Moreover, the “total protein half-life in vivo” value by setting is: under setting [7], 5.3745 ± 0.003 h; under setting [8], 12.1 ± 4.4 h; under setting [9], 4.25 ± 0.16 h; under setting [10], 6.8 ± 0.16 h; under setting [11], 5.96 ± 0.6 h; under setting [12], 11.6 ± 0.24 h.

On to “MVDQVKVVADDQAPAEQSLRRNLTNRHIQLIAIGGAIGTGLFMGSGKTISLAGPSIIFVYMIIGFMLFFVMRAMGELLLSNLEYKSFSDFASDLLGPWAGYFTGWTYWFCWVVTGMADVVAITAYAQFWFPDLSDWVASLAVIVLLLTLNLATVKMFGEMEFWFAMIKIVAIVSLIVVGLVMVAMHFQSPTGVEASFAHLWNDGGWFPKGLSGFFAGFQIAVFAFVGIELVGTTAAETKDPEKSLPRAINSIPIRIIMFYVFALIVIMSVTPWSSVVPEKSPFVELFVLVGLPAAASVINFVVLTSAASSANSGVFSTSRMLFGLAQEGVAPKAFAKLSKRAVPAKGLTFSCICLLGGVVMLYVNPSVIGAFTMITTVSAILFMFVWTIILCSYLVYRKQRPHLHEKSIYKMPLGKLMCWVCMAFFVFVVVLLTLEDDTRQALLVTPLWFIALGLGWLFIGKKRAAELRK [P0AAE0]”, for which the “total protein half-life in vivo” value by setting is: under setting [1], 4.28 ± 0.25 h; under setting [2], 3.4 ± 0.0052 h; under setting [3], 3.26 ± 0.38 h; under setting [4], 2.95 ± 0.22 h; under setting [5], 3.33 ± 0.25 h; under setting [6], 3.28 ± 0.5 h. In addition, the “total protein half-life in vivo” value under setting [8] is 8.36 ± 0.32 h; the “total protein half-life in vivo” value under setting [9] turned out to be 3.26 ± 0.58 h; the “total protein half-life in vivo” value under setting [10] worked out at 5 ± 0.22 h; the “total protein half-life in vivo” value under setting [11] was 4.74 ± 0.37 h; the “total protein half-life in vivo” value under setting [12] turned out to be 6.57 ± 0.66 h.

Consider “MTKKKAHKPGSATIALNKRARHEYFIEEEFEAGLALQGWEVKSLRAGKANISDSYVLLRDGEAFLFGANITPMAVASTHVVCDPTRTRKLLLNQRELDSLYGRVNREGYTVVALSLYWKNAWCKVKIGVAKGKKQHDKRSDIKEREWQVDKARIMKNAHR [P0A832]”, for which the “total protein half-life in vivo” value worked out at 6.34 ± 0.4 h under setting [1]; 6.17 ± 1.2 h under setting [2]; 6.55 ± 0.43 h under setting [3]; 3.07 ± 0.46 h under setting [6]; 13.1 ± 0.6 h under setting [8]; 5.94 ± 0.25 h under setting [9]. The “total protein half-life in vivo” value under setting [11] came to 5.73 ± 0.2 h and the “total protein half-life in vivo” value under setting [12] stood at 11.7 ± 0.31 h.

On to “MGKAVIAIHGGAGAISRAQMSLQQELRYIEALSAIVETGQKMLEAGESALDVVTEAVRLLEECPLFNAGIGAVFTRDETHELDACVMDGNTLKAGAVAGVSHLRNPVLAARLVMEQSPHVMMIGEGAENFAFARGMERVSPEIFSTSLRYEQLLAARKEGATVLDHSGAPLDEKQKMGTVGAVALDLDGNLAAATSTGGMTNKLPGRVGDSPLVGAGCYANNASVAVSCTGTGEVFIRALAAYDIAALMDYGGLSLAEACERVVMEKLPALGGSGGLIAIDHEGNVALPFNTEGMYRAWGYAGDTPTTGIYREKGDTVATQ”, for which the “total protein half-life in vivo” value under setting [1] was found to be 4.9 ± 0.24 h; the “total protein half-life in vivo” value under setting [2] was determined as 3.77 ± 0.08 h; the “total protein half-life in vivo” value under setting [3] was 3.58 ± 0.043 h; the “total protein half-life in vivo” value under setting [4] turned out to be 3.62 ± 0.16 h; the “total protein half-life in vivo” value under setting [5] was 3.16 ± 0.25 h; the “total protein half-life in vivo” value under setting [6] was found to be 2.78 ± 0.19 h. The “total protein half-life in vivo” value under setting [7] was determined as 4.99 ± 0.29 h; the “total protein half-life in vivo” value under setting [8] came to 11.2 ± 4.6 h; the “total protein half-life in vivo” value under setting [9] came out at 3.47 ± 0.42 h; the “total protein half-life in vivo” value under setting [10] was 4.78 ± 0.12 h; the “total protein half-life in vivo” value under setting [11] was found to be 4.75 ± 0.052 h; the “total protein half-life in vivo” value under setting [12] came out at 8.26 ± 0.14 h.
